PMC10715038
Where two headings read alike, the source gives them in different places.

What was measured:
Experiment in all cases: SPR
[1] = molecular target: Horse ACE2-huFc (soluble horse ACE2 ectodomain, human IgG1 Fc fusion) (horse (Equus caballus)) (UniProt F6V9L3)
[2] = molecular target: Pangolin ACE2-huFc (soluble pangolin ACE2 ectodomain, human IgG1 Fc fusion) (pangolin (Manis javanica))
[3] = molecular target: Horse ACE2-huFc (soluble horse ACE2 ectodomain, human IgG1 Fc fusion) (horse (Equus caballus)) (UniProt F6V9L3); remark: listed apart in the source

SARS-CoV-2 WHU01 Spike RBD, monomeric (from UniProt P0DTC2) (domain or fragment)
Kd [1]: 67.4 nM | Kd [2]: 67.1 nM | Kd [3]: 89.8 nM
